Target: T1, human APRIL (a proliferation-inducing ligand) (human), O75888
T1 chain: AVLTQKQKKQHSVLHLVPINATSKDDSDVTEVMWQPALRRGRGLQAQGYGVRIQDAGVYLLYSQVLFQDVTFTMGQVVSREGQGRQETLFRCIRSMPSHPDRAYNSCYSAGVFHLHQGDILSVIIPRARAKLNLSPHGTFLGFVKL
Assay: FACS
Conditions: domain or fragment; chains chain; remark: other sources report otherwise

Kd: 0.025 nM
B1: yeast-displayed wild-type sBCMA (human BCMA extracellular domain, Met1-Ala54), Q02223 1-54 (protein)
chain: MLQMAGQCSQNEYFDSLLHACIPCQLRCSSNTPPLTCQRYCNASVTNSVKGTNA
